Results on 40 molecules are retold here after patent publication US20040037843A1.

Like-named read-outs stand apart in the source and are kept apart here. Ends that are not written are not given here.

In test [1] the target is HLA-A*0201 (human). As to the kind of experiment: competition with 125I-labelled standard peptide for purified HLA, gel filtration. The settings on record: remark: other sources report otherwise.
The target of test [2] is HLA-A*0206 (human). In words: inhibition of 125I probe peptide binding to purified HLA, gel filtration. Particulars: remark: other sources report otherwise.
Test [3] addresses HLA-A*0206 (human). In words: competition with 125I-labelled standard peptide for purified HLA, gel filtration. Particulars: remark: other sources report otherwise.
Test [4] concerns the target HLA-A*0203 (human). Described as above. The settings on record: remark: other sources report otherwise.
Test [5] deals with HLA-A*0202 (human). The description is as above. Particulars: remark: other sources report otherwise.
For test [6], the target named is HLA-A*0206 (human). Particulars: remark: other sources report otherwise.
Test [7] deals with HLA-A*0201 (human). Particulars: remark: other sources report otherwise.
The target in test [8] is HLA-A*0203 (human). The settings on record: remark: other sources report otherwise.
Test [9] has as its target HLA-A*0202 (human). The settings on record: remark: other sources report otherwise.
Another test concerns the target HLA-A*6802 (human). Particulars: remark: other sources report otherwise.
The target in test [10] is HLA-A*0202 (human). In words: competition with 125I probe peptide on purified HLA, gel filtration. Particulars: remark: other sources report otherwise. In general terms: In gel filtration, larger molecules generally elute earlier.
Test [11] has as its target HLA-A*2401 (human).
The target of test [12] is HLA-A*0201 (human). In words: inhibition of 125I probe peptide binding to purified HLA, gel filtration. The settings on record: remark: other sources report otherwise.
In test [13] the target is HLA-A*2401 (human). As to the kind of experiment: competition with 125I-labelled probe peptide for purified HLA, gel filtration.
For test [14], the target named is HLA-A*2401 (purified HLA class I molecule) (human). In words: competition with 125I-labelled standard peptide for purified HLA, gel filtration.
The target of test [15] is HLA-A*2401 (human). The source holds these as a separate data set.
The target of test [16] is HLA-A*2401 (purified HLA class I molecule) (human).
Test [17] deals with HLA-A*0202 (human). In words: inhibition of 125I probe peptide binding to purified HLA, gel filtration. Particulars: remark: other sources report otherwise.
In test [18] the target is HLA-A*2401 (human). In words: competition with 125I-labelled probe peptide for purified HLA, gel filtration. This is another data set of the same source.
The mark [19] stands for this setting: scale: ratio to standard peptide.

As for VISNDVCAQV [PSA position 174, 10 amino acids], the relative binding ratio (IC50 of standard peptide / IC50 of test peptide) in the test with HLA-A*0201 (human) [1] is 0.0008.
For orientation: IC50 means the point on the concentration scale where inhibition reaches its midpoint. With KLQCVDLHVV [Peptide 63.0058 (PSA.166.V10)], the IC50 with HLA-A*0206 (human) [2] was 500 nM.
For GAAPLILSRIV [PSA position 12, 11 amino acids], the values for the relative binding ratio with HLA-A*0206 (human) [3], in the test with HLA-A*0203 (human) [4] and with HLA-A*0202 (human) [5] were 0.0006, 0.011 and 0.022, respectively.
In the case of SLHLLSNDMCV [peptide 1418.66 (HuK2.175.V11)], the IC50 in the test with HLA-A*0206 (human) [6] amounted to 2310 nM; with HLA-A*0201 (human) [7], 8.6 nM; with HLA-A*0203 (human) [8], 10 nM; with HLA-A*0202 (human) [9] it was 0.8 nM; with HLA-A*6802 (human), 2160 nM.
In the test with HLA-A*0202 (human) [10], ALFPPEGVSV [Peptide 1419.61 … (PAP.122.V10)] showed an IC50 of 1 nM.
Regarding LMLLRLSEPA [peptide 63.0014 (HuK2.121)], the results for the IC50 with HLA-A*0201 (human) [7] and with HLA-A*6802 (human) were 200 nM and 5000 nM, respectively.
For SLQCVSLHLL [peptide 1419.66 (HuK2.170, 10-mer)], the IC50 with HLA-A*0206 (human) [6] worked out at 446 nM; with HLA-A*0201 (human) [7], 263 nM; in the test with HLA-A*0202 (human) [9], 4.9 nM; with HLA-A*6802 (human), 5000 nM.
With LTPKKLQCVDL [PSA peptide, position 162, 11 amino acids], the results for the relative binding ratio with HLA-A*0203 (human) [4] (setting [19]) and in the test with HLA-A*0202 (human) [5] (setting [19]) were 0.0074 and 0.0087, respectively.
HLLSNDMCARA (not fully specified) [peptide 1419.15 (HuK2.177)] returned an IC50 with HLA-A*0203 (human) [8] of 250 nM.
Turning to SLQCVSLHL [peptide 60.0191 (HuK2.170, 9-mer)], the 50% inhibitory concentration (IC50) in the test with HLA-A*0201 (human) [7] is 500 nM; with HLA-A*0203 (human) [8] it was 417 nM; with HLA-A*0202 (human) [9], 51 nM; in the test with HLA-A*6802 (human) it was 2580 nM.
For HYRKWIKDTI [Kallikrein position 248, 10 amino acids (…)], the relative binding ratio (IC50 of standard peptide / IC50 of test peptide) with HLA-A*2401 (human) [11] was 0.055.
Turning to VVFLTLSVTWV [Peptide 63.0185 (PSA.1.V11)], the IC50 in the test with HLA-A*0206 (human) [2] came to 336 nM; in the test with HLA-A*0201 (human) [12] it was 89 nM.
With IWSKVYDPL [PAP position 205, 9 amino acids (…)], the relative binding ratio (IC50 of standard peptide / IC50 of test peptide) in the test with HLA-A*2401 (human) [11] was 0.0024.
As to LYFEKGEYF [PAP position 318, 9 amino acids], the relative binding ratio (IC50 of standard peptide / IC50 of test peptide) (with HLA-A*2401 (human) [13]; in [14]) was 2.5 each time.
On to IALSVGCTGAV [Kallikrein position 8, 11 amino acids], for which the relative binding ratio in the test with HLA-A*0206 (human) [3] worked out at 0.01; in the test with HLA-A*0201 (human) [1], 0.0009; with HLA-A*0203 (human) [4], 0.027; with HLA-A*0202 (human) [5], 0.0032.
On to SYKHEQVYI [PAP peptide, position 96, 9 amino acids (A24 supermotif)], for which, in the test with HLA-A*2401 (human) [15], the relative binding ratio (IC50 of standard peptide / IC50 of test peptide) turned out to be 0.26.
For LTLSVTWIGA [PSA peptide, position 4, 10 amino acids], the relative binding ratio with HLA-A*0206 (human) [3] (setting [19]) is 0.011; with HLA-A*0201 (human) [1] (setting [19]), 0.0018; with HLA-A*0203 (human) [4] (setting [19]), 0.082; with HLA-A*0202 (human) [5] (setting [19]), 0.045.
As for GFLFLLFFWL [PAP (prostatic acid phosphatase) peptide, position 17, 10 amino acids], the relative binding ratio (IC50 of standard peptide / IC50 of test peptide) in [16] worked out at 0.0007.
Regarding DLMLLRLSEPV [Peptide 63.0109 (PSA.116.V11)], the IC50 with HLA-A*0201 (human) [12] worked out at 50 nM.
VVFLTLSVTWI [Peptide 1419.25 (PSA.1)]: the IC50 was 2850 nM with HLA-A*0206 (human) [2], 385 nM in the test with HLA-A*0201 (human) [12] and 159 nM with HLA-A*0202 (human) [17].
In the test with HLA-A*0202 (human) [10], GLHGQDLFGI [Peptide 1166.11 … (PAP.196)] showed an IC50 of 0.9 nM.
Consider FLTLSVTWV [Peptide 60.0216 (PSA.3.V9)], for which the IC50 with HLA-A*0202 (human) [17] came out at 8.4 nM.
As to PTQEPALGTT [Kallikrein position 142, 10 amino acids], the relative binding ratio (IC50 of standard peptide / IC50 of test peptide) is 0.0037 with HLA-A*0206 (human) [3], 0.0084 with HLA-A*0201 (human) [1], 0.052 in the test with HLA-A*0203 (human) [4] and 0.022 in the test with HLA-A*0202 (human) [5].
On to KVTKFMLCV [Peptide 60.0220 (PSA.187.V9)], for which the concentration for half-maximal inhibition (IC50) with HLA-A*0206 (human) [2] worked out at 128 nM; with HLA-A*0201 (human) [12] it was 69 nM; in the test with HLA-A*0202 (human) [17], 518 nM.
On to SVGCTGAVPV [peptide 1418.35 (HuK2.11.V10)], for which the IC50 in the test with HLA-A*0206 (human) [6] amounted to 552 nM; with HLA-A*0201 (human) [7], 104 nM; with HLA-A*0203 (human) [8] it was 154 nM.
For LFPPEGVSIW [PAP position 123, 10 amino acids], the relative binding ratio (IC50 of standard peptide / IC50 of test peptide) (with HLA-A*2401 (human) [13]; in test [14]) was 0.014 throughout.
LFPPEGVSI [PAP position 123, 9 amino acids]: the relative binding ratio (IC50 of standard peptide / IC50 of test peptide) (with HLA-A*2401 (human) [13]; in test [14]) was 0.0033 each time.
Take FFWLDRSVL [PAP (prostatic acid phosphatase) peptide, position 23, 9 amino acids]: in [16], the relative binding ratio (IC50 of standard peptide / IC50 of test peptide) was 0.0017.
LLRLSEPAELT [PSA peptide, position 119, 11 amino acids]: the relative binding ratio with HLA-A*0206 (human) [3] (setting [19]) came out at 0.0002; with HLA-A*0201 (human) [1] (setting [19]) it was 0.0023.
In the case of SLQCVSLHV [peptide 1418.19 (HuK2.170.V9)], the results for the IC50 with HLA-A*0206 (human) [6], with HLA-A*0201 (human) [7] and with HLA-A*0203 (human) [8] were 4110 nM, 56 nM and 48 nM, respectively.
For the molecule LFFWLDRSVL [PAP position 22, 10 amino acids], the relative binding ratio (IC50 of standard peptide / IC50 of test peptide) with HLA-A*2401 (human) [13] and with HLA-A*2401 (human) [18] was 0.0045 in each case.
For SWPQGFGQL [PAP peptide, position 62, 9 amino acids (A24 supermotif)], in the test with HLA-A*2401 (human) [15], the relative binding ratio (IC50 of standard peptide / IC50 of test peptide) amounted to 0.0013.
As to GFLFLLFFW [PAP (prostatic acid phosphatase) peptide, position 17, 9 amino acids], in [16], the relative binding ratio (IC50 of standard peptide / IC50 of test peptide) turned out to be 0.0016.
Take ITSWGSEPCAL (not fully specified) [PSA position 222, 11 amino acids]: the relative binding ratio with HLA-A*0206 (human) [3] was found to be 0.0001; in the test with HLA-A*0201 (human) [1] it was 0.001; in the test with HLA-A*0203 (human) [4], 0.0096; with HLA-A*0202 (human) [5] it was 0.012.
On to LYCESVHNF [PAP position 213, 9 amino acids], for which the relative binding ratio (IC50 of standard peptide / IC50 of test peptide) (in the test with HLA-A*2401 (human) [13]; in [14]) was 0.44 in each case.
Take LLSNDMCARA (not fully specified) [Kallikrein (human kallikrein2) peptide, position 178, 10 amino acids]: the relative binding ratio with HLA-A*0206 (human) [3] (setting [19]) turned out to be 0.002; with HLA-A*0201 (human) [1] (setting [19]), 0.003; in the test with HLA-A*0203 (human) [4] (setting [19]), 0.028; with HLA-A*0202 (human) [5] (setting [19]), 0.08.
For EYIRKRYRKF [PAP (prostatic acid phosphatase) peptide, position 83, 10 amino acids], the relative binding ratio (IC50 of standard peptide / IC50 of test peptide) in test [16] is 0.0067.
For HLLSNDMCARV [peptide 1418.67 (HuK2.177.V11)], the IC50 with HLA-A*0206 (human) [6] was 37 nM; in the test with HLA-A*0203 (human) [8], 5.3 nM; in the test with HLA-A*0202 (human) [9] it was 1.3 nM; with HLA-A*6802 (human) it was 860 nM.
Regarding GWGSIEPEEF [Kallikrein position 156, 10 amino acids (…)], the relative binding ratio (IC50 of standard peptide / IC50 of test peptide) in the test with HLA-A*2401 (human) [11] was found to be 0.0001.
On to RYRKFLNESY [PAP peptide, position 88, 10 amino acids (A24 supermotif)], for which the relative binding ratio (IC50 of standard peptide / IC50 of test peptide) with HLA-A*2401 (human) [15] worked out at 0.0057.
